Holding throughout (format): cell-based
Series [1] relates to TTR. Description: TTR editing in primary human hepatocytes treated with LNP formulated Spy Cas9 mRNA (SEQ ID NO: 2) and sgRNAs (Table 16). The note with it: LNP formulated Spy Cas9 mRNA (SEQ ID NO: 2) and sgRNA, 72 hours. In a few lines:
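Primary human hepatocytes, 24 h after plating, were treated with LNPs carrying Cas9 mRNA and sgRNA (1:1 by weight), preincubated 5 min at 37° C in medium with 6% cyno serum, across an 8-point 2-fold dose range. Editing was quantified as percent reads with indels or substitutions by amplicon sequencing.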

Series [2] relates to off-target integration sites. The series is described as follows: Off-target oligo insertion based assay in primary human hepatocytes (Table 30). The conditions noted are these: TTR sgRNAs in PHH, 100 ng Cas9 mRNA, 25 nM sgRNA, 12.5 nM donor oligo.
Series [3] concerns TTR. Description: TTR editing in primary human hepatocytes transfected with Spy Cas9 protein and sgRNAs (Table 12). The note with it: primary human hepatocytes transfected with Spy Cas9 protein (RNP) and sgRNAs. Put shortly: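 Primary human hepatocytes (33,000 cells/well) lipofected (RNAiMAX) with RNP of Spy Cas9 (10 nM) and modified sgRNA (10 nM). Genomic DNA harvested at 24, 48, or 72 hours; target amplicons sequenced on Illumina MiSeq, editing = reads with indels or substitutions over total reads.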

These results are taken from patent US11795460B2, “Compositions and methods for TTR gene editing and treating ATTR amyloidosis” (Intellia Therapeutics, Inc., priority 2017, dated 2023).

Strand notation (5' to 3'): a small letter for the sugar, then the base; units joined by * are phosphorothioate-linked, units joined directly phosphodiester-linked; [ ] holds rarer units or linkages, { } end groups; capitals alone tell only the bases. m = 2'-O-methyl; r = 2'-OH (RNA)

B1: G000500: TTR sgRNA modified sequence, Human, SEQ ID No. 107; guide sequence of CR003337 (nucleic acid)
guide: mC*mC*mA*rGrUrCrCrArGrCrArArGrGrCrArGrArGrGrGrUrUrUrUrArGrAmGmCmUmAmGmAmAmAmUmAmGmCrArArGrUrUrArArArArUrArArGrGrCrUrArGrUrCrCrGrUrUrArUrCrAmAmCmUmUmGmAmAmAmAmAmGmUmGmGmCmAmCmCmGmAmGmUmCmGmGmUmGmCmU*mU*mU*mU
Turning to B1, the “12.5 ng mRNA, 3.9 nM sgRNA Avg % Edit” value with TTR [1] amounted to 23.57%. In addition, the “# Sites in PHH” value in series [2] was determined as 12. For the same molecule, in the series on TTR [3], the “Avg % Deletion” value turned out to be 3.83%, the “Avg % Edit” value turned out to be 65.53% and the “Avg % Insert” value was 62.00%.

B2: G000501: TTR sgRNA modified sequence, Human, SEQ ID No. 108; guide sequence of CR005300 (nucleic acid)
guide: mU*mC*mA*rCrArGrArArArCrArCrUrCrArCrCrGrUrArGrUrUrUrUrArGrAmGmCmUmAmGmAmAmAmUmAmGmCrArArGrUrUrArArArArUrArArGrGrCrUrArGrUrCrCrGrUrUrArUrCrAmAmCmUmUmGmAmAmAmAmAmGmUmGmGmCmAmCmCmGmAmGmUmCmGmGmUmGmCmU*mU*mU*mU
As for B2, in the series on TTR [1], the “12.5 ng mRNA, 3.9 nM sgRNA Avg % Edit” value is 32.30%. For the same molecule, in series [2], the “# Sites in PHH” value is reported as 0. For the same molecule, in the series with TTR [3], the “Avg % Deletion” value is recorded as 6.00%, the “Avg % Edit” value was found to be 60.93% and the “Avg % Insert” value stood at 55.13%.
